One data set has as its target T1, LiLOX (Lobosphaera incisa, UniProt A0A3G6V563).
T1 construct: full length 994 aa; cloned without N-terminal putative plastid signal peptide of 62 residues (ChloroP); N-terminal His tag, pET28a; E. coli BL21 Star; IMAC and SEC
T1 sequence (A0A3G6V563 63-994): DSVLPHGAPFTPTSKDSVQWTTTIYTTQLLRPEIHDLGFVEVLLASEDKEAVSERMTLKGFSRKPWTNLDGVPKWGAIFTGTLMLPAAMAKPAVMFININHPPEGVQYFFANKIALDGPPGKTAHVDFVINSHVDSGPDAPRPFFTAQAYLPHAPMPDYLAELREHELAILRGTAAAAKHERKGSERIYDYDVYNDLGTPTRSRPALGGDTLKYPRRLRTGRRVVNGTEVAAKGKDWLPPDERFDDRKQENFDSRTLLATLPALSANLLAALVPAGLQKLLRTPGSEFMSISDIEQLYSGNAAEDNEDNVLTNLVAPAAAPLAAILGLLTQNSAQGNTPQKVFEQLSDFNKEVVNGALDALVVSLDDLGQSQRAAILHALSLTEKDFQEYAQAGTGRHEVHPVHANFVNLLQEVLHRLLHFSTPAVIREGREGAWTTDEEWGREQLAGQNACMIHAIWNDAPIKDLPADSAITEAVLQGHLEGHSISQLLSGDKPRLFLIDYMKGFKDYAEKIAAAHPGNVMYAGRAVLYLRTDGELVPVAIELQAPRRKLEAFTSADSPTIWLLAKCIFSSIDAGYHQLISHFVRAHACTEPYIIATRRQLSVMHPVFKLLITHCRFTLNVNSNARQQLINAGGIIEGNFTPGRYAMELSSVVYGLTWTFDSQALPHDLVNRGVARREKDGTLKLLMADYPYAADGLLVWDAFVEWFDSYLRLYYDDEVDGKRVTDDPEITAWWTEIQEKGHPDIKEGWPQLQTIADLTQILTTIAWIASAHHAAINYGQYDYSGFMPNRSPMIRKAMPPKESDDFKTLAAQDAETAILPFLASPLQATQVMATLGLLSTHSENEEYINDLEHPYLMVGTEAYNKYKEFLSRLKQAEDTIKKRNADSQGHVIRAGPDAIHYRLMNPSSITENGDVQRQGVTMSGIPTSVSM
The experiment in a line: absorbance at […] nm (conjugated diene). It is filed as biochemical. The conditions noted are these: Hill equation fit (not Michaelis-Menten), 20 mM Bis-TRIS propane pH 7.5, 30 °C, 1 μg enzyme, 10-100 μM substrate.

Substrate in the data set “purified protein”: CCCCC/C=C\C/C=C\C/C=C\C/C=C\CCCC(=O)O
The experiment in a line: purified protein. The note with it: Hill equation fit (not Michaelis-Menten), 20 mM Bis-TRIS propane pH 7.5, 30 °C, 1 μg enzyme, 10-100 μM substrate. It is filed as biochemical, Lobosphaera incisa.

With `CCCCC/C=C\C/C=C\CCCCCCCC(=O)O` [18:2(n‐6)], on LiLOX, the Km turned out to be 31.2 ± 2.78 µM.
`CC/C=C\C/C=C\C/C=C\CCCCCCCC(=O)O` [18:3(n‐3)]: the Km on LiLOX was determined as 55.5 ± 4.1 µM.

B1: LiLOX (Lobosphaera incisa) (protein)
chain: T1 sequence (A0A3G6V563 63-994)
notes: full length 994 aa; cloned without N-terminal putative plastid signal peptide of 62 residues (ChloroP); N-terminal His tag, pET28a; E. coli BL21 Star; IMAC and SEC
Turning to B1, in the data set “purified protein”, the K0.5 was 12.64 ± 1.1 µM, the kcat came to 10.1 ± 0.454 s⁻¹ and the kcat/Km came out at 799000 M⁻¹ s⁻¹.

One may read the Km as the concentration of substrate that gives half-maximal velocity. Usually kcat stands for the number of substrate molecules converted per active site and unit of time at saturation. Broadly, the kcat/Km is the second-order rate constant that governs catalysis at low substrate concentration.

The values above are taken from paper PMC6587457, “The green microalga Lobosphaera incisa harbours an arachidonate 15S‐lipoxygenase” (Plant Biology (Stuttgart, Germany), 2018).
